The text below walks through data of paper PMC5992102.

The target in data set [1] is Dnmt3b-C (C-terminal catalytic domain of mouse Dnmt3b) (mouse).
Another data set concerns the target Dnmt3b-C (mouse, UniProt O88509 558-859). The data set can be described thus: nitrocellulose filter binding.

For “Dnmt3L (from UniProt Q9CWR8 1-421) (natural protein)”, the DNA methylation activity of Dnmt3b-C in the presence of Dnmt3L (fold activation) in data set [1] stood at 6 fold.

B1: Cy5-labeled 30-mer, one CpG site (dsDNA)
DNA 1: GAAGCTGGGACTTCCGGGAGGAGAGTGCAA
DNA 2: TTGCACTCTCCTCCCGGAAGTCCCAGCTTC
Consider B1, for which, in the data set with Dnmt3b-C, the binding result is reported as “binds”.
